# From the RNAGym collection of RNA variant scans (doi:10.1073/pnas.2313332121)
# Fewer inactive variants are shown than the library holds.
# B1: TPR 5TU (parent)
# chain: GGAUCUUCUCGAUCUAACAAAAAAGACAAAUCUGCCACAAAGCUUGAGAGCAUCUUCGGAUGCAGAGGCGGCAGCCUUCGGUGGCGCGAUAGCGCCAACGUUCUCAACUAUGACACGCAAAACGCGUGCUCCGUUGAAUGGAGUUUAUCAUG
# Variants of: B1
# Experiment: polymerase ribozyme fitness, log enrichment relative to wild type (log ratio); higher = more active; in vitro selection for triplet polymerase activity
# Summary of the method: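 Frozen incubation at −7 °C formed the core of a single, triplicate in vitro selection round applied to PCR-built, transcribed mutant libraries of each subunit of a heterodimeric triplet polymerase ribozyme. Extended constructs were gel-excised, captured with streptavidin beads and amplified by RT-PCR, and input and output libraries were Illumina-sequenced with a filter of ≥10 input reads and ≥1 read per output. Fitness is the logarithm of genotype enrichment relative to wild-type enrichment, with inverse-variance-weighted replicate averaging, and the logarithm is base 2.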
row,Variant,polymerase ribozyme fitness (log ratio)
1,A120G G141A,1.23
2,A3U A23C,-3.76
3,C10U G59A C93U A137G,≤ -4.2
4,C14A A17C C36A U44A U45A C54A C85G G88U C103G A110C,≤ -4.2
5,A49G G71A C93G,≤ -4.2
6,C5G C57U,-0.358
7,C14A C38A C93G,≤ -4.2
8,A89G G92U C125U U146C,-1.03
9,A20C A39U A106G C131U A138U,≤ -4.2
10,A3C A16G C99G U102G A106U,≤ -4.2
11,G59U C87U C108U C125A,-3.4
12,C8U C27A A29U A66U G67A A120U U134A,≤ -4.2
13,A16U A120G,-2.64
14,C18G U56G C85U,-0.856
15,C32U C85U,-1.97
16,A24U G86U,-2.59
17,C14G A26U G59C G86C G100A G136U U144A,≤ -4.2
18,A37G A41C G71A U90A C96U,≤ -4.2
19,U56A C85G C93G A107U U111G,≤ -4.2
20,C87A G88A G117A A119G,≤ -4.2
21,A16G A21C G48C C54A G58U C93U A122G,-3.83
22,A28U A39G A66G C76A G81C,≤ -4.2
23,A29U G46A U61A U78G C87G A89C G124U U148G,≤ -4.2
24,A29G C51U C96G,≤ -4.2

row,Variant,polymerase ribozyme fitness (log ratio)
1,A20U A22U C43A G84C C108G C116G,≤ -4.2
2,U55A G140A,-4
3,C38U G86U C118U,-2.07
4,U15G C116U,0.239
5,A21G G80A C99G A119U,-0.387
6,G59A C118A,-0.536
7,A19U A28U A52G C105G G126C G141C U148A C149U A150C,≤ -4.2
8,C35G G62C G67C C85G C131A A147U,≤ -4.2
9,A64G A91G C123G,≤ -4.2
10,U55A C57U,0.643
11,C8U A28U G58A G74C U127G G133C A142U C149G,≤ -4.2
12,A3U A28C G84A G117U A119U G124U,≤ -4.2
13,C75U C85U,0.543
14,A28U G50U G59A,≤ -4.2
15,G11A A52G U53A C54A G84U G128U C132U,-4.13
16,A20U A30C A41G G74U C93U,≤ -4.2
17,G50U A52G C75A C85A G92C G126U G128A A147U,≤ -4.2
18,C54G C85A,-3.85
19,U15G G34U A107C A115U C118A U134C U135G A150G,≤ -4.2
20,C93U C118U,-1.84
21,C54A G92A G126U,-3.3
22,C14G C95U,-1.57
23,C10U G136A,-2.74
24,A26U A41C G71U C95A,≤ -4.2

row,Variant,polymerase ribozyme fitness (log ratio)
1,U13G A17G C96A G143C,-4.19
2,G86U C105A,-2.68
3,A16G A40C,-0.456
4,G68C C85U,-3.93
5,G59U A60C,-2.96
6,U82C U135C U146C,-2.14
7,A24C G74C U90G C99G U127A,≤ -4.2
8,U6G G65U G71C G94A C103G A122G,≤ -4.2
9,U45A G84A,-3.44
10,A60G C99U A150C,-4.02
11,A23C A30C G50A A66G C96A A98U G128C,≤ -4.2
12,C5U A12U C18G G70C G80A C93G C95U A98G U144G,≤ -4.2
13,C14A C35U G58A G86A C96U,-3.96
14,A24G C85A U146C,≤ -4.2
15,A3G C87U,-0.743
16,U55A U56A,-0.654
17,A60C A89C G94A,-1.69
18,A23C A37G U53A A66G G88U U130A U146A,≤ -4.2
19,A26C C43U A52G G71C A97G,≤ -4.2
20,A47C U78A C131U U145A,≤ -4.2
21,C14G C32U G48A C103U U127C,≤ -4.2
22,C10G A41U,-4.05
23,A19U A49C C54A G62A A119G C125U U144A,≤ -4.2
24,C27A U90G A107U,≤ -4.2

row,Variant,polymerase ribozyme fitness (log ratio)
1,A52G A64U G81A G86C G92A A122C G143C,≤ -4.2
2,A29G U55G C57G C87A A107G,≤ -4.2
3,G46C U144C,-1.66
4,G50C C93G U104C,≤ -4.2
5,G84U C87A C116U,≤ -4.2
6,C8G C18G C57G G83U C118U G128A,≤ -4.2
7,A17U A22U C51U U55A C75A C85U U101A C114U A115G G124A,≤ -4.2
8,A26G C43U U45A G59C G88A,≤ -4.2
9,C38U U45A G92C,-4.13
10,A21C A28U G59C A97G U134C,≤ -4.2
11,U61A C96G U109A,-3.32
12,U55A A115G G124U,-0.932
13,U55A G81A C87U U135A U146A,-2.11
14,C27U C75G C85A C105G U130G U146G,≤ -4.2
15,A3C A30U C93U A115G,≤ -4.2
16,U45G G152A,-1.18
17,C38U C87U A115U C125U,-3.34
18,A19C C129G U148G,≤ -4.2
19,C14U G94C,-2.9
20,C96U C103U,-1.25
21,U78G A89U C93G A106G C118G U145C A150U U151G,≤ -4.2
22,A24G A66G C85A A91U U127C G133A U134A,≤ -4.2
23,A73G G126C,0.529
24,C5U G50C C87U C103G A121G C123U C125G,≤ -4.2

row,Variant,polymerase ribozyme fitness (log ratio)
1,A26U G42U U44A U55A G59U C103G A119G A120U G140U,≤ -4.2
2,U9G G88C C99A A119U,≤ -4.2
3,C87G C116U,-3.77
4,C96U U101C A142C,-1.82
5,A12G C27U A40U A73G C87G C95A G124U G136A,≤ -4.2
6,A21C C35U U44A U53A U101G,≤ -4.2
7,A60G C75G,-2.36
8,A22U C54U G81A G83A U90A C95U G141C,≤ -4.2
9,A24U U55A C87U G92U,-3.1
10,A24U G136U,-2.44
11,A39U U44A C79G C132G U139A,≤ -4.2
12,U9G A23C U56A A73U G86C,≤ -4.2
13,A16U G88C,≤ -4.2
14,U56A C93U,-2.13
15,C27U C36U,-2.88
16,U15A C38A A41C C75U U135C,-3.63
17,U33A U61A,-3.64
18,U61C C85A A121G U135A,≤ -4.2
19,C10G U13G C87U C125U,≤ -4.2
20,A20U A22U A121U G128A C129U A137C A138C,≤ -4.2
21,U78C,-0.318
22,G46A C54G C95U,-2.17
23,C63G U78A C79U C85U A98G A106U U134C A142G U146A,≤ -4.2
24,C27A G50C G80A C95U,≤ -4.2

row,Variant,polymerase ribozyme fitness (log ratio)
1,A23G G46A U56A C87A G141C,≤ -4.2
2,U33A C95U A142U G143U,-4.13
3,G46A U55G C79A C85G A97U,≤ -4.2
4,U6A C51U A52U U56A G83U G84A C114U,≤ -4.2
5,A73G C99U,-0.979
6,U102A G128U,-4.1
7,A40U C125U G128C,≤ -4.2
8,G34A G74U G94A C116G,≤ -4.2
9,A20G G25A A49G C54U C76U G84A A122U U145G,≤ -4.2
10,C63G C69G,-1.75
11,A40G C149A,-3.98
12,U45A G86A A142G,≤ -4.2
13,A22C C35A U55A C57U G86U A119U,≤ -4.2
14,G68C C99G A106G C129U,≤ -4.2
15,U78G G94U,-3.47
16,U101G C118A G126A,-3.59
17,G50A U55A C95A,-1.86
18,C18U C96U,-0.659
19,A16U C85U C87U A115G,-3.52
20,A3U G65A C85A,-3.12
21,C14U A17C C35G G141C U151A,≤ -4.2
22,G11A C54U U55A G74A A89G G92C C105G G112A U144G,≤ -4.2
23,G70U A119C,-2.09
24,A91U C108A C114A C129A U146A,≤ -4.2

row,Variant,polymerase ribozyme fitness (log ratio)
1,A49C G68A C96U A98C C108G,≤ -4.2
2,A24U G68C G81C G94A A98C U104C,≤ -4.2
3,A16G G48U G133U,-3.99
4,C51U C96U C105U,0.0676
5,U33C A49C C57U U145A U151A,≤ -4.2
6,U15G A28G A29U C36G A40G G94U U102C A122G U139G,≤ -4.2
7,A40C G46C C57A G74C C103A A107U C118G U134G G140C,≤ -4.2
8,A30U A49C A60U U77C U148A,≤ -4.2
9,C51U U134A,-2.32
10,U15G A52U,-1.59
11,A49U C103G,≤ -4.2
12,C32A G58C A64U C85G,≤ -4.2
13,U55A U82G C116A A121U A137C,-3.5
14,C18G A41C C85A G126U,-0.946
15,U6A A12U,0.206
16,C75U G80C A91G A97U A122G,≤ -4.2
17,A52G C85U G86U C118G U144C C149G,≤ -4.2
18,A37C A47C G88A G100A A137U,≤ -4.2
19,C5G A28C A73G,≤ -4.2
20,C27A G34U U53A G71C G88U C96U U144A U146A,≤ -4.2
21,A22U A23G G50C G74C,≤ -4.2
22,C8G G94A C103U G128C U134A,≤ -4.2
23,U33C C35G C36G G50C G94U,≤ -4.2
